Measured values from PMC7039881.

Assays:
[1] = target: T1, Myc-tagged human GPAT3 (GPAT3-Myc), Q53EU6; test: co-immunoprecipitation (anti-FLAG IP, immunoblot quantification); details: chain shown with the change; HEK293 cells; n = 3; parent: est. 1.0; read off a plot
T1 chain: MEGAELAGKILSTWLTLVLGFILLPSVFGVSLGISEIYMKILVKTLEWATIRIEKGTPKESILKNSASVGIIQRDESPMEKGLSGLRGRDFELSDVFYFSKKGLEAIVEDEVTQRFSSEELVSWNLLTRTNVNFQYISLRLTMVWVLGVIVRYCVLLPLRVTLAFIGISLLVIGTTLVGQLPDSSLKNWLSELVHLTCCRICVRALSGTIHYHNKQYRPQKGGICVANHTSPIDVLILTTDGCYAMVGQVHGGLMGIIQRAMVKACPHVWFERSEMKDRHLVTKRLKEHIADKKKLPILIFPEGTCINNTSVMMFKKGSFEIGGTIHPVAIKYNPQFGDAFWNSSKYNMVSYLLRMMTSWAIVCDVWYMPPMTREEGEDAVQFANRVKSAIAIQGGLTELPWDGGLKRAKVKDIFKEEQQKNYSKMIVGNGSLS

[2] = target: N-terminal FLAG-tagged seipin A212P (human) (UniProt Q96G97); test: co-IP; HEK293 cells co-transfected, lysed 48 h later in ODG lysis buffer (50 mM n-octyl-β-D-glucopyranoside, 50 mM Tris pH 6.8, 150 mM NaCl, 1 mM EDTA); anti-FLAG-agarose beads 2 h at 4 °C, eluted with 3xFLAG peptide; immunoblot for FLAG and Myc
[3] = target: N-terminal FLAG-tagged seipin L91P (human) (UniProt Q96G97); test: as above
[4] = target: Seipin-Myc, wild type (human) (UniProt Q96G97); test: atomic force microscopy; proteins co-isolated on anti-Myc beads from co-transfected tsA 201 cells, eluted and imaged in tapping mode in air; particle volumes and angles

B1: N-terminal FLAG-tagged wild-type seipin (WT), Q96G97 T78A (protein)
chain: MVNDPPVPALLWAQEVGQVLAGRARRLLLQFGVLFCTILLLLWVSVFLYGSFYYSYMPTVSHLSPVHFYYRTDCDSSATSLCSFPVANVSLTKGGRDRVLMYGQPYRVTLELELPESPVNQDLGMFLVTISCYTRGGRIISTSSRSVMLHYRSDLLQMLDTLVFSSLLLFGFAEQKQLLEVELYADYRENSYVPTTGAIIEIHSKRIQLYGAYLRIHAHFTGLRYLLYNFPMTCAFIGVASNFTFLSVIVLFSYMQWVWGGIWPRHRFSLQVNIRKRDNSRKEVQRRISAHQPGPEGQEESTPQSDVTEDGESPEDPSGTEGQLSEEEKPDQQPLSGEEELEPEASDGSGSWEDAALLTEANLPAPAPASASAPVLETLGSSEPAGGALRQRPTCSSS
Q: For B1, which ratio to parent [1] is on record?
A: The ratio to parent was 0.84 fold vs WT.

B2: Myc-tagged human GPAT3 (GPAT3-Myc) (enzyme)
chain: T1 chain
Q: How did the reduction of the co-immunoprecipitation against wild-type seipin [2] turn out when B2 was run?
A: The reduction of the co-immunoprecipitation against wild-type seipin was 50%.

Q: And the reduction of the co-immunoprecipitation against wild-type seipin [3]?
A: Its reduction of the co-immunoprecipitation against wild-type seipin is 50%.

B3: FLAG-GPAT3 (enzyme)
chain: T1 chain
Q: For B3, which percent of seipin particles decorated by two GPAT3 particles [4] is on record?
A: Its percent of seipin particles decorated by two GPAT3 particles is 10.4%.
